From the supplement of paper PMC10567573

B1: KLHL14 (parent)
chain: CAVLDDSIYLVGGYSWSMGAYKSS
B2: RHOBTB3 (parent)
chain: QLQSMPSRELASMNLDIVDLLKKA

Variants of: B1
Assay: protein stability index of a GFP-peptide fusion (GPS, HEK-293T) (PSI 1-6); higher = more stable
Conditions: c terminus: a fixed tail appended
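Note: lentivirally expressed fusions sorted by FACS into six bins by GFP to DsRed ratio, PSI derived from sequencing read proportions per bin multiplied by bin number.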

Variant | protein stability index
A2F | 2.84
A2Y | 2.32
A2P | 1.61
A2I | 2.13
A2N | 2.05
A2M | 3.27
A2Q | 1.93
A2H | 1.85
A2S | 1.59
A2K | 2.85
A2G | 1.04
A2W | 2.5
A2R | 1.3
A2D | 1.04
A2E | 2.37
A2L | 2.18
G19F | 3.41
G19R | 2.98
G19C | 3
G19H | 3.16
G19A | 2.33
G19E | 1.22
G19Q | 1.62
G19P | 1.96
G19K | 2.23

Variant | protein stability index
G19I | 2.9
G19L | 3.64
G19N | 2.06
V3N | 2.57
V3E | 2.77
V3R | 2.4
V3S | 2.3
V3D | 1.57
V3M | 2.9
V3W | 2.71
V3A | 2.03
V3Q | 2.39
V3F | 2.85
V3L | 2.21
V3Y | 1.57
V3P | 2.58
V3I | 2.56
V3T | 2.94
V3H | 1.67
V3G | 1.48
S7Y | 3.75
S7E | 1.99
S7V | 2.46
S7Q | 3.47
S7L | 3.32

Variant | protein stability index
S7T | 1.52
S7R | 1.84
S7P | 2.54
S7N | 2.59
S7A | 2.04
S7M | 2.99
S7G | 3.23
S7H | 2.24
S7C | 3.58
S7F | 2.81
S7I | 2.49
G12N | 3.82
G12Y | 1.55
G12Q | 2.89
G12A | 3.1
G12P | 2.79
G12I | 2.47
G12K | 2.13
G12V | 2.65
G12R | 2.52
G12S | 1.46
G12F | 2.23
G12E | 3.21
G12M | 2.24
G12D | 2.39

Variant | protein stability index
G12H | 2.92
G12L | 2.9
G12C | 3.07
L10P | 1.1
L10C | 3.76
L10N | 1.98
L10M | 1.95
L10G | 2.23
L10I | 1.68
L10R | 2.45
L10T | 1.96
L10Y | 2.08
L10F | 3.26
L10H | 1.59
L10E | 1.33
L10A | 1.55
L10D | 1.94
L10Q | 1.23
L10W | 3.36
L10K | 2.05
L10S | 1.83
I8Y | 2.96
I8R | 1.64
I8K | 1.77
I8A | 2.44

Variant | protein stability index
I8S | 1.73
I8M | 2.62
I8T | 3.78
I8C | 3.23
I8E | 1.13
I8V | 2.52
I8H | 1.93
I8F | 2.55
I8N | 1.65
I8P | 1.93
I8D | 2.22
I8L | 2.23
I8Q | 1.11
I8G | 1.22
I8W | 1.8
L4S | 1.49
L4R | 2.33
L4A | 1.36
L4D | 2.19
L4M | 2.96
L4T | 2.78
L4V | 1.79
L4N | 3.26
L4P | 1.74
L4W | 1.6

Variant | protein stability index
L4C | 1.78
L4I | 2.15
L4K | 2.18
L4H | 2.12
L4G | 1.55
L4Y | 2.19
S17E | 2.25
S17H | 1.98
S17T | 2.27
S17G | 2.69
S17W | 3.53
S17I | 1.92
S17P | 1.54
S17L | 3.11
S17K | 2.48
S17M | 1.49
S17A | 3.94
S17D | 1.52
S17N | 1.53
S17V | 1.96
S17Q | 2.79
S17Y | 2.9
W16H | 1.79
W16R | 1.78
W16F | 2.87

Variant | protein stability index
W16S | 2.01
W16D | 2.14
W16K | 1.94
W16Y | 2.02
W16V | 1.03
W16M | 3.09
W16Q | 1.8
W16P | 2.38
W16N | 1.89
W16G | 1.95
W16E | 2.53
W16I | 2.35
W16A | 1.78
W16T | 1.74
S15K | 2.83
S15D | 2.34
S15P | 2.77
S15I | 2.56
S15Q | 2.44
S15A | 3.83
S15V | 3.31
S15E | 1.03
S15F | 2.58
S15Y | 1.87
S15G | 2.88

Variant | protein stability index
S15N | 2.28
S15W | 2.25
S15R | 1.86
S15T | 2.38
S15H | 1.65
S15M | 4.83
Y14E | 1.69
Y14R | 1.74
Y14A | 1.55
Y14T | 1.44
Y14H | 1.83
Y14C | 2.15
Y14V | 2.19
Y14M | 2.42
Y14W | 2.93
Y14D | 2.23
Y14P | 1.91
Y14K | 1.73
Y14L | 1.86
Y14N | 1.53
Y14S | 1.83
Y14Q | 2.03
Y14F | 2.66
Y14G | 1.2
D5N | 4.88

Variant | protein stability index
D5G | 1.41
D5F | 3.77
D5W | 3.27
D5V | 2.29
D5S | 2
D5Y | 1.54
D5M | 4.24
D5E | 2.7
D5L | 3.33
D5I | 2.19
D5K | 3.02
D5P | 2.72
D5A | 2.24
D6I | 3.34
D6R | 3.76
D6W | 3.66
D6V | 1.97
D6H | 2.9
D6P | 2.97
D6Q | 1.95
D6S | 2.61
D6K | 1.35
D6Y | 1.86
D6M | 4.25
C1T | 1.43

Variant | protein stability index
C1D | 2.42
C1F | 3.37
C1N | 1.74
C1S | 1.7
C1W | 2.63
C1G | 2
C1I | 2.83
C1A | 1.72
C1R | 2.03
C1E | 1.3
C1Q | 1.73
C1Y | 1.82
C1M | 1.5
C1P | 2.28
C1H | 1.74
C1K | 2.42
C1L | 2.09
G13Y | 1.73
G13M | 3.5
G13S | 1.95
G13H | 3.56
G13T | 3.26
G13P | 1.73
G13F | 2.97
G13W | 3.56

Variant | protein stability index
G13N | 2.32
G13R | 2.08
G13I | 2.92
G13C | 2.36
G13Q | 2.49
G13V | 1.27
G13D | 1.98
G13K | 1.51
G13A | 3.61
M18R | 2.11
M18H | 2.5
M18S | 1.73
M18K | 1.91
M18N | 1.46
M18G | 1.68
M18A | 2.89
M18T | 2.15
M18Y | 2.48
M18I | 3.21
M18E | 2.53
M18C | 2.26
M18Q | 2.67
M18W | 3.11
M18F | 2.48
M18L | 2.48

Variant | protein stability index
M18P | 1.62
M18D | 2.09
Y9G | 1.28
Y9R | 3.35
Y9I | 1.86
Y9W | 2.43
Y9A | 1.66
Y9N | 1.56
Y9S | 1.51
Y9E | 2.28
Y9M | 3.37
Y9D | 2.37
Y9P | 2.22
Y9L | 3.26
Y9H | 2.3
Y9C | 3.86
Y9Q | 1.62
Y9T | 2.18
Y9K | 1.36
V11T | 1.83
V11L | 1.72
V11N | 2.2
V11K | 2.1
V11Y | 2.44
V11F | 1.6

Variant | protein stability index
V11Q | 1.79
V11H | 1.88
V11S | 2.21
V11A | 1.94
V11D | 1.94
V11P | 1.56
V11E | 2.33
V11W | 1.7
V11I | 3.25
V11G | 1.93
V11C | 1.91
V11M | 3.05
V11R | 1.24

Variants of: B2
Assay: as above
Conditions: c terminus: a fixed tail appended

Variant | protein stability index
I17L | 3.34
L21C | 3.47
M13Q | 3.79
A11C | 3.17
P6T | 3.46
L20Y | 3.95
L20Q | 3.9
L20I | 3.42
A24S | 3.47
R8M | 3.2
S7A | 3.59
L10A | 4.18
K22Q | 3.93
M5I | 2.95
M5Y | 2.01
Q3M | 3.35
V18W | 2.61
N14H | 3.01
N14R | 2.58
D19W | 2.16
E9Y | 3.14
